Experimental findings from patent publication US20260125454A1 (SHANGHAI JUNSHI BIOSCIENCES, published 2026) are described below.

Changes are numbered by the printed parent chain.

The experiment deals with T1, Biotin-huCGRPaSA (human, not fully specified; biotin (position not given)).
T1 construct: exact construct ('aSA') not explained; also called Biotin CGRPaSA; full-length (1-37) CGRP
T1 peptide: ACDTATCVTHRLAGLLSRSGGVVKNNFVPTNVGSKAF
Kind of experiment: ELISA, supernatant; relative to chimeric C245. The protocol: Biotin CGRPaSA was diluted with PBS (Hyclone) to 1.0 μg/mL, and the dilution was added to a microplate at 100 μL/well. The plate was let stand in an incubator at 37° C. and coated for 90 min and then washed, and 2% BSA was added to the plate at 200 μL/well. The plate was incubated in an incubator at 37° C. for 90 min and then washed. The humanized antibodies in Table 8 and the reference antibody (chimeric antibody C245) were diluted to 1000 ng/mL with a diluent (2% BSA) with a dilution factor of not more than 10. Then, the chimeric antibodies and the reference antibody were serially 2.5-fold diluted on a sample dilution plate. All the chimeric antibody solutions and the reference antibody solution were added into plates at 100 μL/well, and the plates were incubated in a thermostat incubator at 37° C. for 60 min and washed. An HRP-conjugated goat anti-human antibody IgG (manufacturer: Sigma, Cat. No. A0170; Fc specificity) was diluted 5000-fold with 2% BSA and added into the plates at 100 μL/well, and the plates were incubated in the thermostat incubator at 37° C. for 60 min and washed. Chromogenic reagent TMB was carefully added at 100 μL/well to avoid bubbles, and the system was incubated at 37° C. for 15 min away from light for chromogenic reaction. Finally, a 2 M hydrochloric acid solution was added at 100 μL/well to stop the reaction while avoiding bubbles, and the plates were read on a microplate reader within 10 min (wavelength: 450/620 nm).

B1: hu219 (antibody, V domains shown)
VH: QVQLVQSGAEVKKPGASVKVSCKASGYTFTDYNMHWVRQAPGQGLEWMGYIYPYNGHTVYNQKFRNRVTLTVDTSSSTAYMELRSLRSDDTAVYYCAREGLGGYWGQGTLVTVSS
VL: DIVLTQSPDSLAVSLGERATINCKASQNIDYDGYTYLNWYQQKPGQPPKVLIYSIFNLESGVPDRFSGSGSGTDFTLTISSLQAEDVAVYYCQQSNEVPYTFGQGTKLEIK
notes: 3H10 HC-2/3E5 LC-1
Take B1: the “Relative binding activity, %” value came out at 78%.

B2: hu217 (antibody, V domains shown)
VH: B1 VH
VL: DIVLTQSPDSLAVSLGERATINCQASQNIDGNTYMNWYQQKPGQPPKVLIYSIFNLESGVPDRFSGSGSGTDFTLTISSLQAEDVAVYYCQQSNDYPYTFGQGTKLEIK
notes: 3H10 HC-2/2B8 LC2-1
In the case of B2, the “Relative binding activity, %” value is 73%.

B3: hu210 (antibody, V domains shown)
VH: B1 VH
VL: DIVLTQSPASLAVSPGQRATITCKASQNIDYDGYAYLNWYQQKPGQPPKVLIYSVFNLESGVPARFSGSGSGTDFTLTINPVEADDTANYYCQQSNEFPYTFGQGTKLEIK
notes: 3H10 HC-2/1A2 LC2-2
In the case of B3, the “Relative binding activity, %” value came to 73%.

B4: hu112 (antibody, V domains shown)
VH: B1 VH with Y50N, H57G, R65N, R84S, S85R
VL: B1 VL with Y31F, T35A, L37M, Q42H, I55V, N96H
notes: 2B8 HC1-1/1F5 LC1-4
Turning to B4, the “Relative binding activity, %” value turned out to be 14%.

B5: hu139 (antibody, V domains shown)
VH: B1 VH with Y50N, G56A, H57G, R65N, R84S, S85R
VL: B2 VL
notes: 2B8 HC1-3/2B8 LC2-1
On to B5, for which the “Relative binding activity, %” value turned out to be 84%.

B6: hu216 (antibody, V domains shown)
VH: B1 VH
VL: B1 VL with Y31F, T35A, L37M, Q42H, I55V, N96H
notes: 3H10 HC-2/1F5 LC1-4
Regarding B6, the “Relative binding activity, %” value was found to be 58%.

B7: hu113 (antibody, V domains shown)
VH: B1 VH with Y50N, H57G, R65N, R84S, S85R
VL: B2 VL
notes: 2B8 HC1-1/2B8 LC2-1
In the case of B7, the “Relative binding activity, %” value worked out at 44%.

B8: hu142 (antibody, V domains shown)
VH: B1 VH with Y50N, G56A, H57G, R65N, R84S, S85R
VL: B1 VL with D32G, T35S, L37M, I55V, V98A
notes: 2B8 HC1-3/3H10 LC2-1
Turning to B8, the “Relative binding activity, %” value stood at 84%.

B9: hu24 (antibody, V domains shown)
VH: B1 VH with G44R, Y52F, H57V, T58A, Q62R, N66S, R84S, D89E
VL: B1 VL
notes: 1B2 HC-2/3E5 LC-1
Consider B9, for which the “Relative binding activity, %” value amounted to 73%.

B10: hu61 (antibody, V domains shown)
VH: B1 VH with Y32F, H57D, T58V, K63N, R65T
VL: B2 VL
notes: 1F5 HC-3/2B8 LC2-1
As for B10, the “Relative binding activity, %” value turned out to be 56%.

B11: hu152 (antibody, V domains shown)
VH: B1 VH with A24T, G44R, Y52S, H57G, V59A, R65K, N66F, R84S, D89E
VL: B2 VL
notes: 3E5 HC-1/2B8 LC2-1
In the case of B11, the “Relative binding activity, %” value turned out to be 109%.

B12: hu8 (antibody, V domains shown)
VH: B1 VH with Y52F, H57V, T58A, Q62R, N66S, V72I
VL: B1 VL with Y31F, T35A, L37M, Q42H, I55V, N96H
notes: 1B2 HC-1/1F5 LC1-4
In the case of B12, the “Relative binding activity, %” value amounted to 72%.

B13: hu220 (antibody, V domains shown)
VH: B1 VH
VL: B1 VL with D32G, T35S, L37M, I55V, V98A
notes: 3H10 HC-2/3H10 LC2-1
B13: the “Relative binding activity, %” value was 83%.

B14: hu191 (antibody, V domains shown)
VH: B1 VH with A24T, G44R, Y52S, G56A, H57G, V59A, R65K, N66F, R84S, D89E
VL: B2 VL
notes: 3E5 HC-4/2B8 LC2-1
In the case of B14, the “Relative binding activity, %” value is 68%.

B15: hu207 (antibody, V domains shown)
VH: B1 VH with L70M, R98K
VL: B1 VL with D32G, T35S, L37M, I55V, V98A
notes: 3H10 HC-1/3H10 LC2-1
Regarding B15, the “Relative binding activity, %” value came to 56%.

B16: hu141 (antibody, V domains shown)
VH: B1 VH with Y50N, G56A, H57G, R65N, R84S, S85R
VL: B1 VL
notes: 2B8 HC1-3/3E5 LC-1
For B16, the “Relative binding activity, %” value is 86%.

B17: hu178 (antibody, V domains shown)
VH: B1 VH with Y52S, H57G, V59A, R65K, N66F, R84S, S85R, A92V
VL: B2 VL
notes: 3E5 HC-3/2B8 LC2-1
Take B17: the “Relative binding activity, %” value was found to be 65%.

B18: hu22 (antibody, V domains shown)
VH: B1 VH with G44R, Y52F, H57V, T58A, Q62R, N66S, R84S, D89E
VL: B2 VL
notes: 1B2 HC-2/2B8 LC2-1
For B18, the “Relative binding activity, %” value amounted to 76%.

B19: hu126 (antibody, V domains shown)
VH: B1 VH with Y50N, H57G, R65N
VL: B2 VL
notes: 2B8 HC1-2/2B8 LC2-1
For B19, the “Relative binding activity, %” value stood at 79%.

B20: hu48 (antibody, V domains shown)
VH: B1 VH with Y32F, G44R, H57D, T58V, K63N, R65T, R84S, D89E
VL: B2 VL
notes: 1F5 HC-2/2B8 LC2-1
On to B20, for which the “Relative binding activity, %” value was found to be 40%.

B21: hu1 (antibody, V domains shown)
VH: B1 VH with Y52F, H57V, T58A, Q62R, N66S, V72I
VL: B3 VL with D85N
notes: 1B2 HC-1/1A2 LC2-1
With B21, the “Relative binding activity, %” value came out at 58%.

B22: hu180 (antibody, V domains shown)
VH: B1 VH with Y52S, H57G, V59A, R65K, N66F, R84S, S85R, A92V
VL: B1 VL
notes: 3E5 HC-3/3E5 LC-1
As for B22, the “Relative binding activity, %” value came to 87%.

B23: hu204 (antibody, V domains shown)
VH: B1 VH with L70M, R98K
VL: B2 VL
notes: 3H10 HC-1/2B8 LC2-1
B23: the “Relative binding activity, %” value was 68%.

B24: hu206 (antibody, V domains shown)
VH: B1 VH with L70M, R98K
VL: B1 VL
notes: 3H10 HC-1/3E5 LC-1
As to B24, the “Relative binding activity, %” value is 70%.

B25: hu12 (antibody, V domains shown)
VH: B1 VH with Y52F, H57V, T58A, Q62R, N66S, V72I
VL: B1 VL with D32G, T35S, L37M, I55V, V98A
notes: 1B2 HC-1/3H10 LC2-1
For the molecule B25, the “Relative binding activity, %” value came to 73%.

B26: hu116 (antibody, V domains shown)
VH: B1 VH with Y50N, H57G, R65N, R84S, S85R
VL: B1 VL with D32G, T35S, L37M, I55V, V98A
notes: 2B8 HC1-1/3H10 LC2-1
As for B26, the “Relative binding activity, %” value is 88%.

B27: hu60 (antibody, V domains shown)
VH: B1 VH with Y32F, H57D, T58V, K63N, R65T
VL: B1 VL with Y31F, T35A, L37M, Q42H, I55V, N96H
notes: 1F5 HC-3/1F5 LC1-4
As to B27, the “Relative binding activity, %” value amounted to 11%.

B28: hu165 (antibody, V domains shown)
VH: B1 VH with G44R, Y52S, H57G, V59A, R65K, N66F, R84S, D89E
VL: B2 VL
notes: 3E5 HC-2/2B8 LC2-1
B28: the “Relative binding activity, %” value came out at 87%.

B29: hu138 (antibody, V domains shown)
VH: B1 VH with Y50N, G56A, H57G, R65N, R84S, S85R
VL: B1 VL with Y31F, T35A, L37M, Q42H, I55V, N96H
notes: 2B8 HC1-3/1F5 LC1-4
B29: the “Relative binding activity, %” value was found to be 102%.

B30: hu9 (antibody, V domains shown)
VH: B1 VH with Y52F, H57V, T58A, Q62R, N66S, V72I
VL: B2 VL
notes: 1B2 HC-1/2B8 LC2-1
On to B30, for which the “Relative binding activity, %” value was 45%.

B31: hu115 (antibody, V domains shown)
VH: B1 VH with Y50N, H57G, R65N, R84S, S85R
VL: B1 VL
notes: 2B8 HC1-1/3E5 LC-1
In the case of B31, the “Relative binding activity, %” value was 98%.

B32: hu203 (antibody, V domains shown)
VH: B1 VH with L70M, R98K
VL: B1 VL with Y31F, T35A, L37M, Q42H, I55V, N96H
notes: 3H10 HC-1/1F5 LC1-4
Regarding B32, the “Relative binding activity, %” value was determined as 33%.

B33: hu125 (antibody, V domains shown)
VH: B1 VH with Y50N, H57G, R65N
VL: B1 VL with Y31F, T35A, L37M, Q42H, I55V, N96H
notes: 2B8 HC1-2/1F5 LC1-4
For B33, the “Relative binding activity, %” value was determined as 34%.

B34: hu102 (antibody, V domains shown)
VH: B1 VH with G44R, I51V, H57G, T58S, V59A, R65K, N66S, R84S, D89E
VL: B1 VL
notes: 2A2 HC-1/3E5 LC-1
Turning to B34, the “Relative binding activity, %” value came out at 94%.

B35: hu35 (antibody, V domains shown)
VH: B1 VH with T30I, Y32F, G44R, H57D, T58V, K63N, R65T, R84S, D89E
VL: B2 VL
notes: 1F5 HC-1/2B8 LC2-1
Regarding B35, the “Relative binding activity, %” value is 65%.

B36: hu11 (antibody, V domains shown)
VH: B1 VH with Y52F, H57V, T58A, Q62R, N66S, V72I
VL: B1 VL
notes: 1B2 HC-1/3E5 LC-1
In the case of B36, the “Relative binding activity, %” value is 49%.
